These results are taken from PMC8567228 (EMBO Reports, 2021).

Usually stoichiometry N stands for the number of molecules, sites or subunits per partner or assembly.

Numbering of substitutions follows the chain as printed. Numbers in names are those of the source. Where only a bound is given, the exact number is not on record here.

Data set [1] deals with the molecule itself. The data set is described as follows: crystal structure; vapour diffusion crystals, space group P212121, two molecules of PPM1H in the asymmetric unit; with Mg2+ (7kpr, 7l4j, 7l4i) or Mn2+ (7n0z).
Data set [2] concerns the molecule itself. As to the kind of experiment: SEC-MALS; His6-tagged proteins injected at 2 mg/ml (100 μl) into a Superdex 200 column; DAWN Heleos and Optilab TrEX detectors.
In data set [3] the target is T1, pThr73-Rab10 switch 2 phosphopeptide (human).
T1 sequence (peptide, phosphothreonine (T*) at Thr73): AGQERFHTITTSYYR

Data set [4] addresses T2, pThr72-Rab8a switch 2 phosphopeptide (residues 65-79) (human).
T2 sequence (peptide, phosphothreonine (T*) at Thr72): AGQERFRTITTAYYR

Data set [5] has as its target Rab8a phosphorylated at Thr72 (pRab8a) (human) (UniProt P61006).
The target in data set [6] is T3, Rab8a phosphorylated at Thr72 (pRab8a) (human), P61006.
T3 chain: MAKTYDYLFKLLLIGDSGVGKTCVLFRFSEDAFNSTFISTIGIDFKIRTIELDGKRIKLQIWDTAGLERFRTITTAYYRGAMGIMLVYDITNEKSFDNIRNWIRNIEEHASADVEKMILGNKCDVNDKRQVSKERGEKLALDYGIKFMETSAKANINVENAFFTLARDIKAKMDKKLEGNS
The data set is described as follows: cross-linking; DSBU 9.375 mM, 10 min at RT; 35 µM Rab8a and 28 µM PPM1H pre-incubated 1 h at 30°C in 40 mM HEPES pH 7.5, 150 mM NaCl, 2 mM MgCl2; SDS-PAGE, bands digested and read by LC MS/MS.

B1: PPM1H^DA-LD (residues 33-514, D288A, loop 188-226 replaced by GSGS, C56A), crystallised form (enzyme, human)
chain: SDLPLRFPYGRPEFLGLSQDEVEASADHIARPILILKETRRLPWATGYAEVINAGKSTHNEDQASCEVLTVKKKAGAVTSTPNRNSSKRRSSLPNGEGLQLKENSESEGVSCHYWSLFDGHAGSGAAVVASRLLQHHITEQLQDIVDILKNSAVLGSGSTRFFTEKKIPHECLVIGALESAFKEMDLQIERERSSYNISGGCTALIVICLLGKLYVANAGASRAIIIRNGEIIPMSSEFTPETERQRLQYLAFMQPHLLGNEFTHLEFPRRVQRKELGKKMLYRDFNMTGWAYKTIEDEDLKFPLIYGEGKKARVMATIGVTRGLGDHDLKVHDSNIYIKPFLSSAPEVRIYDLSKYDHGSDDVLILATDGLWDVLSNEEVAEAITQFLPNCDPDDPHRYTLAAQDLVMRARGVLKDRGWRISNDRLGSGDDISVYVIPLIHGNKLS
notes: PPM1H phosphatase, human, residues 33-187 with C56A; short linker that replaces the loop 188-226; PPM1H phosphatase, human, residues 227-514 with D288A; also called pET28a(+)-PPM1H^D288A LoopDEL; source: E. coli, purified (nickel agarose, TEV cleavage, second Ni column, Superdex 200); not shown: His6, N-terminal, cleaved
With B1, the binding result in data set [1] is “binds”.

B2: His6-tagged PPM1H^WT-LD (residues 33-514, loop 188-226 replaced by GSGS, C56A) (enzyme, human)
chain: B1 chain with A221D
notes: PPM1H phosphatase, human, residues 33-187 with C56A; short linker that replaces the loop 188-226; PPM1H phosphatase, human, residues 227-514; Same construct as m2 but with the His6 tag kept for SEC-MALS (calculated about 52.1 kDa); source: E. coli, purified (Ni-agarose, Superdex 200); not shown: His6, N-terminal, kept
As for B2, the “stoichiometry N” value in data set [2] turned out to be 2.

B3: His6-SUMO-PPM1H[K88A], full length (enzyme)
chain: MLTRVKSAVANFMGGIMAGSSGSEHGGGSCGGSDLPLRFPYGRPEFLGLSQDEVECSADHIARPILILKETRRLPWATGYAEVINAGASTHNEDQASCEVLTVKKKAGAVTSTPNRNSSKRRSSLPNGEGLQLKENSESEGVSCHYWSLFDGHAGSGAAVVASRLLQHHITEQLQDIVDILKNSAVLPPTCLGEEPENTPANSRTLTRAASLRGGVGAPGSPSTPPTRFFTEKKIPHECLVIGALESAFKEMDLQIERERSSYNISGGCTALIVICLLGKLYVANAGDSRAIIIRNGEIIPMSSEFTPETERQRLQYLAFMQPHLLGNEFTHLEFPRRVQRKELGKKMLYRDFNMTGWAYKTIEDEDLKFPLIYGEGKKARVMATIGVTRGLGDHDLKVHDSNIYIKPFLSSAPEVRIYDLSKYDHGSDDVLILATDGLWDVLSNEEVAEAITQFLPNCDPDDPHRYTLAAQDLVMRARGVLKDRGWRISNDRLGSGDDISVYVIPLIHGNKLS
B3 displayed an initial rate of phosphate release (malachite green time course), 32 μM pThr73-Rab10 peptide, against wild-type PPM1H (fold reduction) in data set [3] greater than 20. For the same molecule, the initial rate of phosphate release (malachite green time course), 32 μM pThr72-Rab8a peptide, against wild-type PPM1H (fold reduction) in data set [4] was greater than 20. The initial rate of phosphate release (malachite green time course), 16 μM pThr72-Rab8a protein (GTPγS), against wild-type PPM1H (fold reduction) in data set [5] is greater than 20.

B4: His6-SUMO-PPM1H[R338A], full length (enzyme)
chain: B3 chain with A88K, R338A
In turn, B4 returned an initial activity of phosphate release (malachite green time course), 16 μM pThr72-Rab8a protein (GTPγS), against wild-type PPM1H (fold reduction) in data set [5] of 2.

B5: Recombinant PPM1H[D288A] used for DSBU cross-linking, Q9ULR3 1-514 (enzyme)
chain: SDLPLRFPYGRPEFLGLSQDEVECSADHIARPILILKETRRLPWATGYAEVINAGKSTHNEDQASCEVLTVKKKAGAVTSTPNRNSSKRRSSLPNGEGLQLKENSESEGVSCHYWSLFDGHAGSGAAVVASRLLQHHITEQLQDIVDILKNSAVLPPTCLGEEPENTPANSRTLTRAASLRGGVGAPGSPSTPPTRFFTEKKIPHECLVIGALESAFKEMDLQIERERSSYNISGGCTALIVICLLGKLYVANAGASRAIIIRNGEIIPMSSEFTPETERQRLQYLAFMQPHLLGNEFTHLEFPRRVQRKELGKKMLYRDFNMTGWAYKTIEDEDLKFPLIYGEGKKARVMATIGVTRGLGDHDLKVHDSNIYIKPFLSSAPEVRIYDLSKYDHGSDDVLILATDGLWDVLSNEEVAEAITQFLPNCDPDDPHRYTLAAQDLVMRARGVLKDRGWRISNDRLGSGDDISVYVIPLIHGNKLS
modifications: not checked
As for B5, in data set [6], the stoichiometry N (PPM1H per pRab8a (2:2)) came out at 1.

B6: PPM1H^DA (residues 33-514, D288A), crystallised form (enzyme, human, UniProt Q9ULR3 33-514, looked up)
chain: B5 chain
notes: PPM1H phosphatase, human, residues 33-514 with D288A (substrate-trapping mutant); Two molecules in the asymmetric unit; two Mg2+ ions at the active site; also called pNIC28-Bsa4-PPM1H^33-514 D288A; source: E. coli, purified (nickel agarose, TEV cleavage, second Ni column, Superdex 200)
Regarding B6, the binding result in data set [1] was “binds”.
